# From the DeepSol protein solubility set
# Assay: soluble on expression in E. coli; label from the status in PepcDB or PDB records
row,Sequence,soluble on expression in E. coli
1,MGSDKIHHHHHHVLKKALRQHFRQSCTEQDLHRWFDPLDITLADEKRLEVRFPHRFFAEWFSTQVQGRFESELNTFMGEGTTVEYTTGCCPVLSSSPLPPAAVSKKLSAPFGREYTFETFISNKRNFFPVASARELARQEEEIRYNPFVLCGPAGSGKTHLLRAIANELSKTVYKKHIFISTIDDLGTLFSNNGSGDPAQVRQQLSACHYLLLDDLHRLREQPQLQDELTVLFNSFYDRQKQMVFTCPGKLSELDFLETGLRSRLEWGLIVTMKPPDLEILVTFIQRQCKLHKLQLAKEHVFTLAQRFRDFRHLQGVLNRLTAYRDLVNRTLADTDFEQVLSHTEAGAGRPLTADRIIALCAGRFSLPPKDVTGDKRHQKVVLARQVAMYLCRELMGSSYPVLGRTFGGKDHSTAMYAVKKIKKMIDSDKTTRQLVTELKKQCLSGAE,not soluble
2,MIDRQTNEPKQKTRIILAPMQGLVDDVMRDLLTRIGGYDECVSEFVRITHTVHSRSIWLKYVPEIANGNKTFSGTPCTVQLLGSDADNMAANALEAVRFGANKIDLNFGCPAPTVNKHKGGAILLKEPELIFHIVKTLRGRLPAHIPLTAKMRLGYEDKSRALECACAIAEGGACGLTVHARTKAEGYEPPAHWEWIRKIRDSVNIPVTANGDVFSLQDYIGIKTISGCNSVMLGRGAVIRPDLARQIKQYENGGPVKDTDFAEVSKWIRQFFELCLTKEANNKYPLARLKQWLGMMKKEFAAAQNLFDRVRTVKDADEVRNILAEFEREMNT,not soluble
3,MRLLHTMLRVGDLQRSIDFYTKVLGMKLLRTSENPEYKYSLAFVGYGPETEEAVIELTYNWGVDKYELGTAYGHIALSVDNAAEACEKIRQNGGNVTREAGPVKGGTTVIAFVEDPDGYKIELIEEKDAGRGLGN,soluble
4,MGSDKIHHHHHHAVNCYVGNYYRADSIAEAAIDSDREVAVTIEKKDKRIQATQYDLKLKNYTITFAPQDKEKATKALIFYPGGRVQYTAYAPLMHELAKNNFVCILVHMPGNLAVLDQNAADGIIEKYKEIYPSIQEWYMGGHSLGGAMAAEYVAKHVDEFDGLYLFAAYSTADLSDSDLRVFSVYGSEDGVLDMDKYRKYRSNLPEDTYEYVIDGGCHSYFGSYGLQKGDGTPDVAFEEQIEMTVDFITYNSK,not soluble
5,MGALIPSSTLFNIFDFNPKKVRIAFIAVGLRGQTHVENMARRDDVEIVAFADPDPYMVGRAQEILKKNGKKPAKVFGNGNDDYKNMLKDKNIDAVFVSSPWEWHHEHGVAAMKAGKIVGMEVSGAITLEECWDYVKVSEQTGVPLMALENVCYRRDVMAILNMVRKGMFGELVHGTGGYQHDLRPVLFNSGINGKNGDGVEFGEKAFSEAKWRTNHYKNRNGELYPTHGVGPLHTMMDINRGNRLLRLSSFASKARGLHKYIVDKGGESHPNAKVEWKQGDIVTTQIQCHNGETIVLTHDTSLQRPYNLGFKVQGTEGLWEDFGWGEAAQGFIYFEKIMNHSHRWDSSEKWIKEYDHPMWKKHEQKAVGAGHGGMDYFLDNTFVECIKRNEAFPLDVYDLATWYSITPLSEKSIAENGAVQEIPDFTNGKWKNAKNTFAINDDY,soluble
6,MTDVPALEIKNLHKTFGQNEVLKGISLQAQKGDVISIIGSSGSGKSTFLRCINLLETPTAGEIWVKGELIQMKTTRQGTVQPAKEKQVQRIRSRLAMVFQSFNLWSHMTVLENVIEAPVHVLGVPKAQAIEQAERLLRKVGLYERKDYYPGHLSGGQQQRAAIARALAVEPEVMLFDEPTSALDPELVGEVLGVMRDLAEEGRTMLVVTHEMAFARDVSNHVMFLHQGKVEEQGKPEKLFKNPDSERLKQFISSIY,not soluble
7,MGSDKIHHHHHHMKALIEVHNLWKEYNGKEKVTALKGINLRINTGEFVVILGPSGSGKTTLLNCLSGVDRPTRGTVIIHGTDLYTLSEEERTRFRAENMGFVFQFFNLVPVLTAIENVELPLLILGVNRKEARERAFEILRKVGLAHKCDRFPEELSGGEKQRVAIARAIVHNPKVIWADEPTGALDNETGRMIIDLLMEMKENSTLVVVTHDERIAEKADRVIRIRDGQIEQDICEKAL,not soluble
8,MSLGQFWHVTDLHLDPTYHITDDHTKVCASSKGANASNPGPFGDVLCDSPYQLILSAFDFIKNSGQEASFMIWTGDSPPHVPVPELSTDTVINVITNMTTTIQSLFPNLQVFPALGNHDYWPQDQLPVVTSKVYNAVANLWKPWLDEEAISTLRKGGFYSQKVTTNPNLRIISLNTNLYYGPNIMTLNKTDPANQFEWLESTLNNSQQNKEKVYIIAHVPVGYLPSSQNITAMREYYNEKLIDIFQKYSDVIAGQFYGHTHRDSIMVLSDKKGSPVNSLFVAPAVTPVKSVLEKQTNNPGIRLFQYDPRDYKLLDMLQYYLNLTEANLKGESIWKLEYILTQTYDIEDLQPESLYGLAKQFTILDSKQFIKYYNYFFVSYDSSVTCDKTCKAFQICAIMNLDNISYADCLKQLYIKHNYEGHHHHHH,not soluble
9,MRIRSLEIEHMRAITHLVLKDLPSNGVIVISGENERGKSTIMEAIKLVLGEKHDTNKQSVKAIQPKGHDVGTRICLEADLGPVRFRVSKVFNKKKSCELTIFEPKPANYTGKEANSQLSGLLDAHLDHDLFSALFVEQGDITSMLSAAGISSVTQALGGATDHASNEDNALILTVEKEKDRYFTKSGATKKGGELGIAETAVAEAEQAVLAATQQKETLDRRVESVAGFQRDRDQAQQDLPNARDTLTTREQELKTAELAAQQLENASAQLKIAQDQERILQSDIDAREELRKEQSRLSEALQIRIQEELDLKEKTDSLSEAREKLRSQHEKARADAEKMRQRLEKLKESLRLDTLRTSYQELLTVSKQLEELRTVPEVTGAQLSAAEEANDRAKAAAYVVEAHAATMLINAAQPVTIQIDGEAVALNDTEWTTRITSELTAVIGDVSLTIEPGEQGEQLEQKRAETQETLRAALGDAKDIATLRLQREAWVDAEKELQSLNKRKNEIAMRFGDKADLERDIADAELQVAELDIQESDDLQQLIDDAEKEYLQYQQDADAYQKELGAWDSNDIQVRYATVKARVEAERENLDRCDQKIKAQEEQRPLEVLHSELHNVTAELKRQQDHLAELRETDNLQVAKDLYAGAAARVESLENTIRDCEANLKALQTQIDYAAGAAEQLDVALAQRDVALRVLEAVHHRAQAAMLLYTTLIRHRDIARQKYAAPFTQRLTEFAAPVFGKGVGFELGSDLSVVKRTMKEQTVGVDELSGGAQEQLSIVQRFAVADLASQGGETVPVFIDDALGSTDSNRLEMMATLFSRQGHNQQVFVLTCMPQRYDYVAGKHELRISDLMQ,not soluble
10,MDILFRIRGGFDLAFQLAPPKEMFIKNALRQVLSDLTTKLSSDALVLRVCNSSVYLWPNSDANTGELTDSSACKNVVRFIQFDQEEDTKRKFIKKKDKKLTDTQQIVNIDLMLEISTPLGAVTPILERENEEHHYINMSLPIDAVVSVAPEESWGKVRKLLVDAILRQLVDVEKCILRYMKGTSIVVPEPLHFQLPGKKNLVTVLYPSGIPDDQLQAYRKELHDLFNLPHDRPYFKRINAYHFPDELYKDGYIRNPHTYLSPPNIEGSMICVVQGTYAYHHYMQDRIDDNGWGCAYRSLQTICSWFRHQGYTERSIPTHREIQQALVDAGDKPATFVGSRQWIGSIEVQMVLNQLIGVTSKILFVNQGSEMASQGRELANHFQNVGTPVMVGGGVLAHTILGVAWNETTGQIKFLILDPHYTGAEDLQVMLEKGWCGWKSPDFWNKDAYYNLCLPQRPNAL,soluble
11,MSYYHHHHHHLESTSLYKKAGLQALLLEQQDGKTLASVQTLDESRLPEGDVTVDVHWSSLNYKDALAITGKGKIIRNFPMIPGIDFAGTVRTSEDPRFHAGQEVLLTGWGVGENHWGGLAEQARVKGDWLVAMPQGLDARKAMIIGTAGFTAMLCVMALEDAGVRPQDGEIVVTGASGGVGSTAVALLHKLGYQVVAVSGRESTHEYLKSLGASRVLPRDEFAESRPLEKQVWAGAIDTVGDKVLAKVLAQMNYGGCVAACGLAGGFTLPTTVMPFILRNVRLQGVDSVMTPPERRAQAWQRLVADLPESFYTQAAKEISLSEAPNFAEAIINNQIQGRTLVKVN,soluble
12,MSETVSVESSVDSNINQDVNIRATYLGAHELKLAASLLYQAYHDDPVFLDIFKSDKEDYEQRLRGAIREELNAFWQAKQPMIGLYLGEAMVGVACINSPDETLASDRFWHWRLKMLLNAGYFSTKQMMQKEHTVLAAVPLKIFHFLSFIAVHPLHQQHGFGHYLMAAVNTVLDEHPDSEGVAVYATSGKFKEFFKQVDYHTVKEVTVGNVCGSVMVHYRDKEE,soluble
13,MGSDKIHHHHHHMLLKSPDKSPEKILKLFDEVYSKARIFYLLRTAIDLNLFEYLSSFKTAKELAEILDADLILMEYMLKILNELDLIESKVVSERIYYKNAEITNIYLKKDSNYSIINPIYSYFENIKNWENLADILKNKSNCSNMDVDNFFPKVVRRMADECKCWELQKVLNYMAKYEEFKNAKKLLDLAGGHGLYAIGFSMLNRNLKCYVFDLPNVIEETKKFIKKYNAKNVFTITGDFYKDDIGKGYDIIFCSYNPGGKNPKIAEKVYNALNEGGLFINKQFFPDKEEGIEDYINNMEWNFSKPEGLKKGKIRYTFEGDLNLNDYLKYLEDLGFKILEVVDMSELLGLDENSSSFRKSANPSDSLRFKDNSPAKMIVAKKL,not soluble
14,GMSESCILFFVKYPEPGKVKTRLGEVVGNDKAAMLYRHFVQDMLQGLARLHADLHICYVPGDADLPEKFKAWLGPQHMFAAQQGLDLGERMKHAMQKAFDDGYDRVVLMGSDIPDYPCELVQKALNDLQHYDAAIGPAFDGGYYLIGFRKDSFCPDVFDGIRWGEADVYQPTVEKMRRARLEVLQLPDWNDVDTVWDLNVLYRTNKNSSFRRSSTYALLRENDALIRQYDIDLPGMAPVEKE,soluble
15,MGSDKIHHHHHHMMQTDQRILLVGTPSERLSRLCCIFEFLGEQIDIITIEKLSTCLQETRFRALVISIDNMSADALKLVASQYPWQPILLFGHVGELQVSNVLGHIEEPLNYPQLTELLHFCQVYGQVKRPQVPTSANQTKLFRSLVGRSDGIANVRHLISQVATSDATVLVLGQSGTGKEVVARNIHYLSERRDGPFIPVNCGAIPPELLESELFGHEKGSFTGAISSRKGRFELAEGGTLFLDEIGDMPLQMQVKLLRVLQERVFERVGGTKTINADVRVVAATHRDLETMISSNEFREDLYYRLNVFPIEMPALSERKDDVPLLLQELVSRVYNEGRGKVRFTQRAIESLKEHAWSGNVRELSNLVERLTILYPGGLVDVNDLPIKYRHIDVPEYSVELSEEQQERDALASIFTSEEPVEIPETRFPSELPPEGVNLKDLLAELEIDMIRQALEQQDNVVARAAEMLGIRRTTLVEKMRKYGMTKE,not soluble
16,MGSDKIHHHHHHMTVGTLPIWSKTFSYAIRSLCFLHIIHMYAYEFTETRGESMLPTLSATNDYVHVLKNFQNGRGIKMGDCIVALKPTDPNHRICKRVTGMPGDLVLVDPSTIVNYVGDVLVDEERFGTYIKVPEGHVWVTGDNLSHSLDSRTYNALPMGLIMGKIVAANNFDKPFWDGSIRNIWGFKWINNTFLDVQAKSN,not soluble
17,MGSDKIHHHHHHMLDVVANQDKSIVVKQLRYGRDNEVLVVDEWQLHPAEHWAIFATDSYCGSLLGRILTGDIQPDEGTIAGLPQRIGWVSLGLQQVLLERELEKDELDYGSSVEFLVLECCQDAAQLAPLLQKVGLEPLRLRGFRQLSTGETRRVMLARALAMLPQLLILDDPYAGLDVEHQASLSELLSEVAEHTQLLIITSRQEELPPCISHVALFNGEMLKSGQSVHKLSQPMSIEQWHNHPVMAQLNALSAQRSNELLALMERQRHNAEAFDPLVEIKNGKVEYVSGLIFSGVNWRIEAGQHWQVRGPNGCGKSTLLGLILGDHPQCYSNDITLFGRPRGSGESIWQIKQRIGIVSSALHLQYRVSCSVLDVLLSGFFDSIGLYQKPTKPQLDLAKEWLAILHMTGLASTSFKKLDYGQQRLLLIGRALIKQPLLLILDEPYQGLDFINRTLVMRALKMIAEHHLSQLLYVSHHREDALPAIHHFVDFIKQGDGYSVQVSDSESKD,not soluble
